Reference: publication PMC12916166 (The Journal of cell biology, 2025)

Molecular target: Aip5C-L (997–1234) (S. cerevisiae, UniProt P43597 997-1233)
Assay: fluorescence polarisation

Aip5C-L (997–1234), sequence (P43597 997-1233): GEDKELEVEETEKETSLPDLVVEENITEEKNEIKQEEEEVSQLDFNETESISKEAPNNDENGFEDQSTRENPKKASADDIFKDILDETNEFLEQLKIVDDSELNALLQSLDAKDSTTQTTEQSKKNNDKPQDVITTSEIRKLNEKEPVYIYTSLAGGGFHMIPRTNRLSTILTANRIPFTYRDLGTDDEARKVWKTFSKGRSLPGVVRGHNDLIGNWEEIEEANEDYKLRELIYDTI

B1: Bud6 (1–145)-kCk-Alexa488 (domain or fragment, S. cerevisiae, UniProt P41697 1-145, looked up)
chain: MKMAVDDPTYGTPKIKRTASSSSSIETTVTKLLMSTKHLLQVLTQWSKGTTSGRLVSDAYVQLGNDFKVVSKFFMHAKVDMSDVGDVPMALRRVLEVTLREPPSDETLNKHLPKIREIIVTLLDKLKVKQAILKNMQQEHRISVK
modifications: Alexa488 maleimide on the single cysteine of the C-terminal KCK sequence
B1 showed a Kd of 85 nM.
